Source: US20050124549A1 (ADMINISTRATORS OF THE TULANE EDUCATIONAL FUND, published 2005)
Where no end group is shown, it is not given here. [ ]: non-standard residue; d: D form.

Columns and labels:
[1] = target: T1, human somatostatin receptor subtype 2 (human, UniProt P30874 1-369); test: cell-based or functional assay
T1 construct: whole, on cells; also called SSTR2; SSTR-2

[2] = target: human somatostatin receptor subtype 4 (human) (UniProt P31391); test: radioligand displacement, CHO-K1 membranes expressing human SSTR4; competitor [125I-Tyr11]SS-14
Chain of human somatostatin receptor subtype 4 (human) (P31391 whole entry): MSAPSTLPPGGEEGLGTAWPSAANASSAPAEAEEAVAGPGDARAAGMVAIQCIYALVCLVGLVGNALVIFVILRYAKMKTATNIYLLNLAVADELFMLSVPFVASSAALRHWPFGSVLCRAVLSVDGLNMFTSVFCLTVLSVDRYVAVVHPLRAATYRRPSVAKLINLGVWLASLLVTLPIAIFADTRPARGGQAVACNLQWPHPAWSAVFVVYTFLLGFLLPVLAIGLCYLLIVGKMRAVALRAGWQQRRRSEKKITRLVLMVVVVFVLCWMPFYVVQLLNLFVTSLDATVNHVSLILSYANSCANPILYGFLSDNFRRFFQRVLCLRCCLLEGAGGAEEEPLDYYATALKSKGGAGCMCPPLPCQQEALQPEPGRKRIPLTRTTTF

[3] = target: T1, human somatostatin receptor subtype 2; test: radioligand displacement, CHO-K1 membranes expressing human SSTR2; competitor [125I]MK-678
Protocol: (§1) Specificity and selectivity of the analogues were determined by Radioligand Binding Assay on CHO-K1 cells stably transfected with each of the SSTR subtypes, as follows.
(§2) Membranes for in vitro receptor binding assays were obtained by homogenizing the CHO-K1 cells expressing the SSTR's subtypes in ice-cold 50 mM Tris-HCl and centrifuging twice at 39000 g (10 min), with an intermediate resuspension in fresh buffer. The final pellets were resuspended in 10 mM Tris-HCl for assay. […] The final assay volume was 0.3 ml. […] The incubations were terminated by rapid filtration through GF/C filters (pre-soaked in 0.3% polyethylenimine) using a Brandel filtration manifold. Each tube and filter were then washed three times with 5 ml aliquots of ice-cold buffer.

[4] = target: T2, human somatostatin receptor subtype 3 (human, UniProt P32745 1-418); test: radioligand displacement, CHO-K1 membranes expressing human SSTR3; competitor [125I-Tyr11]SS-14
T2 construct: whole, on cells; Membrane preparations of transfected CHO-K1 cells; also called SSTR3; SSTR-3
T2 sequence (P32745 whole entry): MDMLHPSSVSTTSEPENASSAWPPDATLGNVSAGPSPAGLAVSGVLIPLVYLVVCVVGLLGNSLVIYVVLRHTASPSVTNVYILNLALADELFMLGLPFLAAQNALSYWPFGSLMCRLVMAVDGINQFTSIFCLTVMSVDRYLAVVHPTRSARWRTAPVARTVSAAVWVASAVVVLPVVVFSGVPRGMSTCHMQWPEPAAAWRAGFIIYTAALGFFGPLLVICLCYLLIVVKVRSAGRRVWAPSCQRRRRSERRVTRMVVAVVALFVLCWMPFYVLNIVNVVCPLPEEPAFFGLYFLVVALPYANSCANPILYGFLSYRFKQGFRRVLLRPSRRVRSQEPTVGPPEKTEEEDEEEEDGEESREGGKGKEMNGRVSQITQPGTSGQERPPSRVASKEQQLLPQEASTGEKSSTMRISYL
Protocol: as §1, §2

[5] = target: T3, human somatostatin receptor subtype 5 (human, UniProt P35346 1-364); test: radioligand displacement, CHO-K1 membranes expressing human SSTR5; competitor [125I-Tyr11]SS-14
T3 construct: whole, on cells; also called SSTR5; SSTR-5
T3 sequence (P35346 whole entry): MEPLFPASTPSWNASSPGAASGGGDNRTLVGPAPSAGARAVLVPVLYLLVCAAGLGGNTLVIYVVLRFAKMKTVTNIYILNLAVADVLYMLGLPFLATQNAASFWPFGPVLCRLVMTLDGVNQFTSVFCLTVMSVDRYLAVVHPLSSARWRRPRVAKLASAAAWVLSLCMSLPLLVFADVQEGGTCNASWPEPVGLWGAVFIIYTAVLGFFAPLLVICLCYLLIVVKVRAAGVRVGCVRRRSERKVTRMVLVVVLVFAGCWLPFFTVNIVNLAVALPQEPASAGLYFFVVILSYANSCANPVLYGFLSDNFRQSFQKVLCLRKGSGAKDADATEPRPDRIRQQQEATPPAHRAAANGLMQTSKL
Protocol: as §1, §2

[6] = target: T4, human somatostatin receptor subtype 1 (human, UniProt P30872 1-391); test: radioligand displacement, CHO-K1 membranes expressing human SSTR1; competitor [125I-Tyr11]SS-14
T4 construct: whole, on cells; Membrane preparations of transfected CHO-K1 cells; also called SSTR1; SSTR-1
T4 sequence (P30872 whole entry): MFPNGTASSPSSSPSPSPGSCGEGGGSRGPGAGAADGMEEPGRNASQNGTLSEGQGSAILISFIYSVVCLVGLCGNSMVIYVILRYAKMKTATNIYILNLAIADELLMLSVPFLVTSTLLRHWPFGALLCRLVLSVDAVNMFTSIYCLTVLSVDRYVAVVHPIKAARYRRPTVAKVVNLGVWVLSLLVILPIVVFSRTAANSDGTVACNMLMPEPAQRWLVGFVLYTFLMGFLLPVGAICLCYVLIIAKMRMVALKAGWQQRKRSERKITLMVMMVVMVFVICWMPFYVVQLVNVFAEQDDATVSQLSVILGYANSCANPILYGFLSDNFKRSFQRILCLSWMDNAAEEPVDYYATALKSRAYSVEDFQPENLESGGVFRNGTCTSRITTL
Protocol: as §1, §2

T1 sequence (P30874 whole entry): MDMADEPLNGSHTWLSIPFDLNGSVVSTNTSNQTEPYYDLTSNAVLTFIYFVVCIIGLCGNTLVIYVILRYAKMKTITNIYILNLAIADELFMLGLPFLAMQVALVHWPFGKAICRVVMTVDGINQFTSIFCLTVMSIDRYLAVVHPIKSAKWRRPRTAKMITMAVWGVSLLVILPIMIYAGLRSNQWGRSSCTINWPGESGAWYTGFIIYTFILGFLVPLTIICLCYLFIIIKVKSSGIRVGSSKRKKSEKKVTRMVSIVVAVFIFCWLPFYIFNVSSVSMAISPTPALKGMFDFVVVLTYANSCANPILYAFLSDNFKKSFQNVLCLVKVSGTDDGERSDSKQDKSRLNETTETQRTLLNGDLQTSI

## Compound 4: 4-(2-Hydroxyethyl)-1-piperazine-2-ethanesulfonyl-D-Phe-cyclo(Cys-Tyr-D-Trp-Lys-Abu-Cys)-Thr-NH2 (peptide)
[1]
  change of [^3H]thy incorporation in TT cells at 10^-9 M: -13%

## Compound 2: cyclo[Tic-Tyr-D-Trp-Lys-Abu-Phe] (peptide)
[2]
  IC50: 1000 nM
[3]
  IC50: 0.34 nM
[4]
  IC50: 412 nM
[5]
  IC50: 214 nM
[1]
  suppression of [^3H]thy incorporation in TT cells, 10^-9 to 10^-7 M: 23 to 58%
[6]
  IC50: 1000 nM

## Compound 6: Cpa-cyclo(D-Cys-4-Pal-D-Trp-Lys-Thr-Cys)-Nal-NH2 (peptide)
[3]
  IC50: 6.4 nM
[4]
  IC50: 44 nM
[5]
  IC50: 86.5 nM
[6]
  IC50: 2760 nM

## Compound 3: 4-(2-Hydroxyethyl)-1-piperazinylacetyl-D-Phe-cyclo(Cys-Tyr-D-Trp-Lys-Abu-Cys)-Thr-NH2 (peptide)
[3]
  IC50: 0.35 nM
[1]
  change of [^3H]thy incorporation in TT cells at 10^-9 M: -17%
[6]
  IC50: 5210 nM

B1: Compound 5: D-Phe-Phe-Trp-D-Trp-Lys-Thr-Phe-Thr-NH2 (peptide)
peptide: [dF]FW[dW]KTFT-NH2
notes: also called SSTR5 preferential agonist; SSTR5 selective agonist
[3]
  IC50: 166 nM
[4]
  IC50: 1000 nM
[5]
  IC50: 2.4 nM
[6]
  IC50: 1150 nM

B2: Compound 1: D-Nal-cyclo[Cys-Tyr-D-Trp-Lys-Val-Cys]-Thr-NH2 (peptide)
peptide: XCYXKVCT
modifications: not fully specified; D-Nal at position 1; D-Trp at position 4; cyclo (disulfide) Cys2-Cys7; C-terminal amide
notes: also called SSTR2 preferential agonist
[3]
  IC50: 0.75 nM
[4]
  IC50: 98 nM
[6]
  IC50: 2130 nM
